test: soluble on expression in E. coli; label from the status in PepcDB or PDB records

| Sequence | soluble on expression in E. coli |
| --- | --- |
| MQRLEESTSCRGVGDMRKAIIVGVGMTPVGEHWRSSLRDLAVEAILNAMDDAGIDKVDSLYVGNMASGSFVEQENLGALIADWAGLGNIPAVKIEAACASGGAAVQEGAKAVLSGLEDVVLVVGVEKMTDAWPSDATRYLGYAADAEWELFHGASFVALNALIMRLYMNTYGYKEEDLALFAVNAHANGAKNPYAMFKKPITVETVMKSPYIADPLKLFDASPVCDGAAAVIITTPEKAKELGIPKDKWIEIAGMGRAIDTINLANREDFLTLKAATIAAERAYKMAGVKPEDVDFFEVHDAFTVMAALSLEALGVAKKGEGAKLAIEGQIAIDGDYPIQTMGGLKARGHPVGATGVYQVVEAVLQLRGEAPDGIQVPDAEVGLTQNIGGTGSNITVTVLRRV | not soluble |
| MGSDKIHHHHHHMLDPAGARVQIAKGRRDAADEPEDEDQMTRLEAFGDRKFPAAELILSSEGRGWDGIGTQVRRHPAGEIPVPVPDQMEVTLAIAGSQTGRVERRSGSAFQNTTARPGTLWFCPIGVTEDSIRITETLPMVQHVFLAKSQFDSLSELSSRSLSPASIAYLADVNDELVRQICQRIYREAQEETSSGKILIDCLAQSLVAHLVSDYSHDSRIHLGPDSGPSKLDDARLRRVLDYIYGNIDQDLSLSKLSEVACLSKHHFARAFREATGTPPYRFISERRLDHALNLLKDSRLSLAEIAYICRFSSQATFTRAFRRHVGTSPGEYRHLSRT | not soluble |
| MDKKVTDSTQRGYYIVYLFSEDMCRLYLTLTQRVTETPRDEMERVKQDIRQQIPVGGRVQTDNAIRLSASKRAKEYERSVAVYIAYSFDNLPSDEQLVSDLKTMIGYYRQYVERTEKMTPFKQSLSDRSVVEHIHFYITAKGFYYTQEEVMNLFLSLKTKPFVILSGISGTGKTKIAQWLAESVGATEDNGQFILIPVCPDWNDGSDLLGYVDIKGDFKPGPLTNVITEAENHPDKPYFVVLDEMNLARVEHYFSDVLSVMGSRRWENGRITLSRLLPKETAGRDLFLPPNVYIIGTVNMDETTHPFSKKVLDRANTIEFNRIRLDHLDFLRDLPTVAPLSGGQEWFAARLEHHHHHH | not soluble |
| MTRAKQIILWASLSAMPLIAQASERSDDEIKALVYQAILERPEIILQAVEQLQQAEEAAQAASAHAALTENRDSLFNDPNAPVLGNPEGDVTVVEFFDYNCPYCRRAMAEVQGLVDADPNVRLVYREWPILGEGSDFAARAALAARQQGKYEAFHWALMGMSGKANETGVLRIAREVGLDTEQLQRDMEAPEVTAHIAQSMALAQKLGFNGTPSFVVEDALVPGFVEQSQLQDAVDRARKAAAK | not soluble |
| MSLGYATAHRRVRHLSADQVITRPETLAVEEPLEIRVNGTPVTVTMRTPGSDFELVQGFLLAEGVVAHREDVLTVSYCGRRVEGNATGASTYNVLDVALAPGVKPPDVDVTRTFYTTSSCGVCGKASLQAVSQVSRFAPGGDPATVAADTLKAMPDQLRRAQKVFARTGGLHAAALFGVDGAMLAVREDIGRHNAVDKVIGWAFERDRIPLGASVLLVSGRASFELTQKALMAGIPVLAAVSAPSSLAVSLADASGITLVAFLRGDSMNVYTRADRITEGHHHHHH | soluble |
| MHKKADQPFMKEKRGSKLTVRAMPIQSKNLQISGICDVVEFVQDSEGIELSGVSGSYKAFPVEYKRGKPKKGDEDIVQLVAQAMCLEEMLVCRIDKGYLFYNEIKHRVEVPITDALRDKVVQMAKEMHHYYENRHTPKVKTGPFCNNCSLQSICLPKLMNKRSVKRYIEGRLSELEHHHHHH | not soluble |
| MNFETVIGLEVHVELKTKSKIFSSSPNAFGAPPNTQTNVIDLGYPGVLPVLNRQAVEFAMKAAMALNCEIATETKFDRKNYFYPDNPKAYQISQYDQPLGKNGWIEIEVNGKKKKIGITRIHLEEDAGKLTHTGDGYSLVDFNRQGTPLIEIVSEPDIRSPEEAYAYLEKLKAIIQYTGVSDCKMEEGSLRCDANISLRPIGSDKFGTKTELKNLNSFNFVRMGLEYEAKRQEKILLSGGVIRQETRRFDEATKTTVLMRVKEGSEDYRYFPEPDLVMLYIDDEWKERVRASIPELPDARRKRYIEEWGLPEYDAKVLTLTKEMADFFEATVANGADPKLASNWLMVEVSGYLNAEQKELHDIALTPESLAGMIKLIQDGTISSKIAKKVFKELVEHGGDPERIVKEKGLVQISDEGALRKIVLEVLDANPQSVEDYKNGKDRALGFLVGQVMKATKGQANPPLVNKLLVEEIGKR | not soluble |

— the DeepSol protein solubility set
